The target of the assay is T1, human recombinant β-arrestin 1 (human, UniProt P49407 1-418).
T1 construct: β-arrestin 1, human, recombinant; Used as the prey (25 ng) in the GST pull-downs; source: bought: Gentaur (human recombinant)
The assay can be described thus: pull-down; GST fusion protein immobilised on Glutathione Sepharose 4B beads; 25 ng human recombinant β-arrestin 1 as prey, with or without 0.5 mM peptide; 20 mM Hepes pH 7.9, 50 mM KCl, 2.5 mM MgCl2, 1 mM DTT, 10% glycerol, protease and phosphatase inhibitors; 1 hour at 4 °C; six washes; blot with anti-β-arrestin, quantified as the ratio of β-arrestin 1 over GST fusion. The settings on record: both partners purified.

T1 sequence (P49407 whole entry): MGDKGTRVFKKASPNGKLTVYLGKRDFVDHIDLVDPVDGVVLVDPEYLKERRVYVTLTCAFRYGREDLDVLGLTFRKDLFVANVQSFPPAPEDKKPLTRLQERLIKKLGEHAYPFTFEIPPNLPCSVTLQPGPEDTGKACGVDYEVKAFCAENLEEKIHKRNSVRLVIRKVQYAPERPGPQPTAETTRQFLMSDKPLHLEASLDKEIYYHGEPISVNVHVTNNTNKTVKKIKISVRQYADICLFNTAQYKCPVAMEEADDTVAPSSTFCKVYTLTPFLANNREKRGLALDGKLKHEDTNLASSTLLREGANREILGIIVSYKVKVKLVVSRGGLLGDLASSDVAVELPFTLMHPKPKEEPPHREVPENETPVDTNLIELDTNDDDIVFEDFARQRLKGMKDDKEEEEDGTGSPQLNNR

B1: ERK interfering peptide (peptide)
peptide: ISPFEHQTY
notes: stretch of ERK2 at the predicted interface with β-arrestin 1; Printed as H-ISPFEHQTY-OH (free ends); Resuspended in H2O + 5% DMSO and used at 0.5 mM; source: synthetic peptide (Genecust laboratories)
For the molecule B1, the binding result is reported as “binds”.

B2: Raf1 interfering peptide (peptide)
peptide: KQRTVVNVRN
notes: stretch of Raf1 at the predicted interface with β-arrestin 1, within the RBD; Printed as H-KQRTVVNVRN-OH (free ends); Resuspended in H2O and used at 0.5 mM; source: synthetic peptide (Genecust laboratories)
With B2, the binding result is on record as “binds”.

For the origin of these results see PMC4649906, “Unraveling the molecular architecture of a G protein-coupled receptor/β-arrestin/Erk module complex” (Scientific Reports, 2015).
